# From PMC3352918, “Mechanism of Nucleic Acid Unwinding by SARS-CoV Helicase” (PLoS ONE, 2012)
# B1: nsp12-H6 (C-terminal hexahistidine containing nsp12, SARS-CoV RNA-dependent RNA polymerase) (enzyme)
# chain: SADASTFLNRVCGVSAARLTPCGTGTSTDVVYRAFDIYNEKVAGFAKFLKTNCCRFQEKDEEGNLLDSYFVVKRHTMSNYQHEETIYNLVKDCPAVAVHDFFKFRVDGDMVPHISRQRLTKYTMADLVYALRHFDEGNCDTLKEILVTYNCCDDDYFNKKDWYDFVENPDILRVYANLGERVRQSLLKTVQFCDAMRDAGIVGVLTLDNQDLNGNWYDFGDFVQVAPGCGVPIVDSYYSLLMPILTLTRALAAESHMDADLAKPLIKWDLLKYDFTEERLCLFDRYFKYWDQTYHPNCINCLDDRCILHCANFNVLFSTVFPPTSFGPLVRKIFVDGVPFVVSTGYHFRELGVVHNQDVNLHSSRLSFKELLVYAADPAMHAASGNLLLDKRTTCFSVAALTNNVAFQTVKPGNFNKDFYDFAVSKGFFKEGSSVELKHFFFAQDGNAAISDYDYYRYNLPTMCDIRQLLFVVEVVDKYFDCYDGGCINANQVIVNNLDKSAGFPFNKWGKARLYYDSMSYEDQDALFAYTKRNVIPTITQMNLKYAISAKNRARTVAGVSICSTMTNRQFHQKLLKSIAATRGATVVIGTSKFYGGWHNMLKTVYSDVETPHLMGWDYPKCDRAMPNMLRIMASLVLARKHNTCCNLSHRFYRLANECAQVLSEMVMCGGSLYVKPGGTSSGDATTAYANSVFNICQAVTANVNALLSTDGNKIADKYVRNLQHRLYECLYRNRDVDHEFVDEFYAYLRKHFSMMILSDDAVVCYNSNYAAQGLVASIKNFKAVLYYQNNVFMSEAKCWTETDLTKGPHEFCSQHTMLVKQGDDYVYLPYPDPSRILGAGCFVDDIVKTDGTLMIERFVSLAIDAYPLTKHPNQEYADVFHLYLQYIRKLHDELTGHMLDMYSVMLTNDNTSRYWEPEFYEAMYTPHTVLQ
# notes: also called SARS-CoV polymerase; SARS-CoV RdRp
# Biological target: T1, GST-nsp13 (Glutathione S-Transferase-tagged nsp13 of SARS-CoV) (SARS-CoV, UniProt P0C6X7 5302-5902)
# T1 construct: also called SARS-CoV helicase; non-structural protein 13; not shown: GST, N-terminal, kept
# Assay: pull-down
# Settings: both partners purified
binder,measurement,value
B1,binding result,binds
